Tests used:
Rat-2 cells [1] = experiment: Rat-2 cell migration by scratching method; type: cell-based
Experimental: 1×10^6 cell/well Rat-2 cells were seeded in 6-well plated with 3 ml DMEM-10% FBS. After 6 hours for adhesion, fresh DMEM-0.5% FBS medium was changed for serum-starving overnight. After pre-warmed DMEM rinsing, four wounds (each 1 mm wide; two horizontal and two vertical) were scratched employing a 1-ml tip for each treatment group. Cells were rinsed by DMEM for three times, followed by incubation with treatment medium [DMEM-0.5 FBS containing 100 pM (2.5 ng/ml) TGF-β1 (SEQ ID NO:64) or -β3 (SEQ ID NO:66) w/o 200 nM (11.2 μg/ml) FMOD (SEQ ID NO:1)] for 24 hours. Photos were captured at both 0-h and 24-h after the scratching. The unclosed distance was measured and quantified as an average gap (A) and migration index (B). Similar results were reproduced in four independent experiments. The scale bar in (A) equal to 100 The asterisks in (B) present P<0.05.
(§1) Similar to FMOD (whole protein), the effect of FMOD peptides and/or TGF-β on cell migration was also evaluated by scratching method (FIGS. 18C and 25D). At the same time, cell migration/invasion in Matrigel was documented at 100× magnificent after 24 hour treatment and quantitated using DAPI nuclear staining (100 rather than 200× magnification was used because one group's invasion is quite low) (see the results in FIG. 20A and DAPI pictures in FIG. 20B). Passage 18 Rat-2 cells (20,000 cells/well) were used for the test under the treatment of 100 pM TGF-β1 (SEQ ID NO:64)/133 (SEQ ID NO:66) with/without 200 nM FMOD-F07-40C in DMEM-0.5% FBS.

TGF-β1 [2] = molecular target: T1, TGF-β1 (Homo sapiens, UniProt P01137); experiment: ELISA analysis of binding with TGF-β1; settings: BSA as negative control; FIG. 3
Source text: Bovine serum albumin (BSA) was used as negative control.
SUMO-CAT from the recombinant bacteria harboring control plasmid pET_SUMO/CAT was used as negative control. To the knowledge of inventors, the TGF-binding sites within FMOD have not been reported.

TGF-β3 = molecular target: T2, TGF-β3 (Homo sapiens, UniProt P10600); experiment: TGF-β3 binding to biotinylated FMOD/FMOD peptides on avidin resin; non-bound TGF-β read by Mv1Lu growth inhibition (MTT)
T2 sequence (P10600 301-412 limits assumed): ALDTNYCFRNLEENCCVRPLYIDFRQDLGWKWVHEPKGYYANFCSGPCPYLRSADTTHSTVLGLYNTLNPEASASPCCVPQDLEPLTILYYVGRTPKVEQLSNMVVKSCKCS
Experimental: (§2) FMOD (whole protein) (SEQ ID NO:1), FMOD peptides and control protein BSA were biotinylated. While, the biotinylated proteins and peptides were bound to commercial available Piece Monomeric Avidin UltraLink Resin (Piece). The amounts of each test peptides/proteins are 1:1, 10:1, 100:1 and 1000:1 to TGF-βs, respectively. After washing out the non-bound residues, appropriate amount TGF-βs (based on the primary test assay) were added to the resin at 4° C. After overnight binding, non-bound TGF-βs were collected, followed by filter sterilization. Then, the TGF-βs residue were diluted 100 times in DEME-0.5% FBS to ensure the concentration was located in the linear region of TGF-βs on Mv1Lu proliferate inhibition.
(§3) Diluted TGF-βs was added to overnight serum-starved Mv1Lu, and fresh TGF-βs media were added for another 24 hour before MTT assay. Samples with no TGF-βs added were employed as controls.

Rat-2 cells [3] = experiment: Rat-2 cell migration/invasion in Matrigel, DAPI nuclear staining; type: cell-based
Experimental: Cell migration/invasion in Matrigel was documented at 200× magnificent after 24 hour treatment and quantitated using DAPI nuclear staining (results shown in FIG. 19A and repeat results in FIGS. 26B and 26C; DAPI pictures are shown in FIG. 19D).
as §1
Passage 18 Rat-2 cells (20,000 cells/well) were used for the test under the treatment of 100 pM TGF-β1/β3 with/without 200 nM FMOD-F06-40C in DMEM-0.5% FBS (FIG. 20C).

TGF-β1 [4] = molecular target: T1, TGF-β1; experiment: TGF-β1 binding to biotinylated FMOD/FMOD peptides on avidin resin; non-bound TGF-β read by Mv1Lu growth inhibition (MTT); settings: ratios 1:1, 10:1, 100:1, 1000:1 to TGF-β; overnight 4° C.; FIG. 13
Experimental: as §2, §3

[5] = test system: Rat-2 (rat fibroblast cell line) cells; experiment: Rat-2 cell proliferation, Click-iT Microplate Assay; type: cell-based; settings: FMOD combined with 100 pM TGF-β1, 48 hours; FIG. 16
Experimental: 2000 cell/well passage 18 Rat-2 (rat fibroblast cell line) cells were seeded in 96-well plates with 200 μl DMEM-10% FBS for 6 hours, followed by overnight serum starving with 200 μl DMEM-0.5% FBS. 200 μl treatment medium, DMEM-0.5% FBS harboring different concentration of FMOD (SEQ ID NO:1), FMOD-F07-C40 peptide with/without 100 pM TGF-βI (SEQ ID NO:64), was added to the well and refreshed on the second day. After 48 hours treatment, proliferation of Rat-2 cells was evaluated by Click-iT® Microplate Assay (Invitrogen).

[6] = test system: connective tissue growth factor (CTGF) expression; experiment: CTGF expression and cell aggregation in Rat-2 cells, confocal staining; type: cell-based; settings: for CTGF expression: 48 h
Experimental: Results of exemplary tests on each of FMOD and FMOD-P, alone or in combination with TGF-β on CTGF expression are shown in FIGS. 28A-28D. In these tests, 4,000 cells/well passage 18 Rat-2 cells were seeded in 8-well chamber slices in DMEM medium with 10% FBS. After 6 h adhesion, fresh DMEM medium with 0.5% FBS was employed for overnight serum starvation and then treatment media added. Treatment media were changed after 24 h. Cells were fixed and staining at 48 h. Photos were captured at 630× magnifications using a confocal microscope. In these figures, the cells were stained for CTGF (connective tissue growth factor, a factor involved in cell proliferation, migration and matrix production) or DAPI (4′,6-diamidino-2-phenylindole a fluorescent stain that binds strongly to DNA-used for nuclear staining). Merged images showing both CTGF and DAPI staining are also shown.

Rat-2 cells [7] = experiment: H&E morphology of Rat-2 cells; type: cell-based
Experimental: Exemplary tests were performed to better delineate cell morphology.

[8] = 100 pM TGF-β1 and 200 nM FMOD combined treatment

T1 sequence (P01137 279-390 limits assumed): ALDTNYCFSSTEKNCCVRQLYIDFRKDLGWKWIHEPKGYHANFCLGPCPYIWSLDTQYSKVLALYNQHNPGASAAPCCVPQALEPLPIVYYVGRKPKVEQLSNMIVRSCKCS

binding with TGF-β1 in ELISA assay (TGF-β1 [2]): able to bind with TGF-β1 | rank order of binding to TGF-β isoforms (TGF-β3; comparison of FIGS. 13-15): TGF-β1>TGF-β2>TGF-β3
B1: FMOD: recombinant human fibromodulin whole protein (SEQ ID NO:1) produced in CHO-K1 (protein, listed as Homo sapiens)
chain: MQWTSLLLLAGLFSLSQAQYEDDPHWWFHYLRSQQSTYYDPYDPYPYETYEPYPYGVDEGPAYTYGSPSPPDPRDCPQECDCPPNFPTAMYCDNRNLKYLPFVPSRMKYVYFQNNQITSIQEGVFDNATGLLWIALHGNQITSDKVGRKVFSKLRHLERLYLDHNNLTRMPGPLPRSLRELHLDHNQISRVPNNALEGLENLTALYLQHNEIQEVGSSMRGLRSLILLDLSYNHLRKVPDGLPSALEQLYMEHNNVYTVPDSYFRGAPKLLYVRLSHNSLTNNGLASNTFNSSSLLELDLSYNQLQKIPPVNTNLENLYLQGNRINEFSISSFCTVVDVVNFSKLQVLRLDGNEIKRSAMPADAPLCLRLASLIEI
cell migration, scratch (Rat-2 cells [1]; 200 nM combined with 100 pM TGF-β1, 24 hours): induced significant migration | cell migration, scratch (Rat-2 cells [1]; 200 nM combined with 100 pM TGF-β3, 24 hours): decreased TGF-β3 mediated inhibition of migration | cell migration, scratch (Rat-2 cells [1]; alone (200 nM FMOD or 100 pM TGF-β), 24 hours): induced Rat-2 minimal migration | TGF-β3 binding (TGF-β3; ratios 1:1, 10:1, 100:1, 1000:1 to TGF-β, FIG. 15): TGF-β3 binding that also expectedly increased with higher FMOD protein ratios up to 1:100 | cell migration/invasion in Matrigel (Rat-2 cells [3]; 200 nM combined with 100 pM TGF-β1, 24 hour treatment): induced significant migration | cell migration/invasion in Matrigel (Rat-2 cells [3]; 200 nM combined with 100 pM TGF-β3, 24 hour treatment): decreased TGF-β3 mediated inhibition of migration | cell migration/invasion in Matrigel (Rat-2 cells [3]; alone (200 nM FMOD or peptide, or 100 pM TGF-β), 24 hour treatment): induced Rat-2 moderate migration | TGF-β1 binding (TGF-β1 [4]): TGF-β1 binding that also increased with higher FMOD protein ratios | fibroblast proliferation [5]: significantly increased fibroblast proliferation | cell aggregation ([6]; 100 pM TGF-β1+200 nM FMOD): significant cell aggregation | CTGF expression ([6]; 100 pM TGF-β1+200 nM FMOD, FIG. 21D): significantly higher CTGF expression | cell morphology ([6]; 200 nM FMOD alone, compared to the control group): more flat and spread out when compared to the control group | CTGF expression (green fluorescence) ([6]; TGF-β1/FMOD combo-treatment relative to TGF-β1 mono-treatment, FIG. 24): significantly increases expression of CTGF | cell morphology ([6]; TGF-β1/FMOD combo-treatment, FIG. 24): much more densely packed, aggregated cells with a significant degree of nodule formation | CTGF expression ([6]; mono-treatment (200 nM FMOD or 100 pM TGF-β1), FIGS. 21B, 21C): Minimal CTGF expression | cell density (H&E) (Rat-2 cells [7]; [8]): significantly increased cell density | nodule size (Rat-2 cells [7]; [8]): increased nodule size | nodule number (Rat-2 cells [7]; 100 pM TGF-β1 and 200 nM FMOD combined treatment, 8-well chamber slides): about four | cell morphology (H&E) (Rat-2 cells [7]; 200 nM FMOD alone, FIG. 22): flat, spread-out Rat-2 cell morphology | cell aggregation/density (H&E) (Rat-2 cells [7]; mono-treatment (200 nM FMOD or 100 pM TGF-β1), relative to controls): lower cell aggregation/density relative to controls

Source: patent US20160304573A1, “FIBROMODULIN PEPTIDE” (The Regents of the University of California, priority 2010, published 2016)
